In patent US20210324108A1:

Target: human 4-1BB on Jurkat-hu4-1BB-NFκB-luc2 reporter cells (human) (UniProt Q07011)
Experiment: cell-based or functional assay

Sequence of human 4-1BB on Jurkat-hu4-1BB-NFκB-luc2 reporter cells (human) (Q07011 24-255 limits assumed): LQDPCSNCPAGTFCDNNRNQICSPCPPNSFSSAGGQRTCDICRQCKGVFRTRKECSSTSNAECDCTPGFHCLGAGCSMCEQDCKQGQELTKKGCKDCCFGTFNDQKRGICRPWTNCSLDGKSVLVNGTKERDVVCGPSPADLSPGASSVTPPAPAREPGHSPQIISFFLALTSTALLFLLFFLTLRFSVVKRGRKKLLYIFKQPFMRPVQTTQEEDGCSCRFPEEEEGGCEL

## 2+1 bispecific agonistic anti-4-1BB (20H4.9) x anti-FAP (4B9) huIgG1 P329GLALA antibody (bispecific antibody)
  EC50 of NFκB-luciferase activation in Jurkat-hu4-1BB-NFκB-luc2 cells with NIH/3T3-huFAP clone 19: 0.02 nM
  area under the curve (AUC) of NFκB-luciferase activation in Jurkat-hu4-1BB-NFκB-luc2 cells with NIH/3T3-huFAP clone 19: 53500
